Reference: PMC10397247

Experiments:
Experiment in all cases: two-hybrid library CCmax;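 note: natural log of median RNA to DNA barcode read ratio; higher means stronger binding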
4H716-AA = biological target: T1, 4H716-AA
T1 chain: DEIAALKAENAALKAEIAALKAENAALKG

4H733-AA = biological target: T2, 4H733-AA; conditions: mean of both orientations
T2 chain: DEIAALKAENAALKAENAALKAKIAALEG

4H807-AA = biological target: T3, 4H807-AA; conditions: mean of both orientations
T3 chain: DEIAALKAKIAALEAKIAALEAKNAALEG

APC1015-AA = biological target: T4, APC1015-AA; conditions: mean of both orientations
T4 chain: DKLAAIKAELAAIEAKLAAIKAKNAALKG

APC1434-AA = biological target: T5, APC1434-AA; conditions: mean of both orientations
T5 chain: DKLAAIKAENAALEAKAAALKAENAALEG

APC2237-AA = biological target: T6, APC2237-AA; conditions: mean of both orientations
T6 chain: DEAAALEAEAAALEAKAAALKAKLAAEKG

APC232-AA = biological target: T7, APC232-AA; conditions: mean of both orientations
T7 chain: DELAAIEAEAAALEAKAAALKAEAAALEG

APC2405-AA = biological target: T8, APC2405-AA; conditions: mean of both orientations
T8 chain: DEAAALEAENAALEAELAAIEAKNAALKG

APC3645-AA = biological target: T9, APC3645-AA; conditions: mean of both orientations
T9 chain: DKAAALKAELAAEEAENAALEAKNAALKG

APC4011-AA = biological target: T10, APC4011-AA; conditions: mean of both orientations
T10 chain: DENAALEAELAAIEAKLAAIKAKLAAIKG

APC4264-AA = biological target: T11, APC4264-AA; conditions: mean of both orientations
T11 chain: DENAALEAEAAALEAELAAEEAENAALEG

APC4436-AA = biological target: T12, APC4436-AA; conditions: mean of both orientations
T12 chain: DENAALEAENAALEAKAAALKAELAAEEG

APC5383-AA = biological target: T13, APC5383-AA; conditions: mean of both orientations
T13 chain: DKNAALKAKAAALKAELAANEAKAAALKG

APC6108-AA = biological target: T14, APC6108-AA; conditions: mean of both orientations
T14 chain: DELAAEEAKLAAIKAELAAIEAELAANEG

APC7099-AA = biological target: T15, APC7099-AA; conditions: mean of both orientations
T15 chain: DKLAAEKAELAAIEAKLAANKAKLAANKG

APC8191-AA = biological target: T16, APC8191-AA; conditions: mean of both orientations
T16 chain: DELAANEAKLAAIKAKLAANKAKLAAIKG

APC8910-AA = biological target: T17, APC8910-AA; conditions: mean of both orientations
T17 chain: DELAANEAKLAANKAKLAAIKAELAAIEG

APC9096-AA = biological target: T18, APC9096-AA; conditions: mean of both orientations
T18 chain: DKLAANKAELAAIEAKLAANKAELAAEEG

APC9319-AA = biological target: T19, APC9319-AA; conditions: mean of both orientations
T19 chain: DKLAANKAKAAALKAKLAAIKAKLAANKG

4H2124-AA = biological target: T20, 4H2124-AA
T20 chain: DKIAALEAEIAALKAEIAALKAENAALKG

4H2165-AA = biological target: T21, 4H2165-AA; conditions: mean of both orientations
T21 chain: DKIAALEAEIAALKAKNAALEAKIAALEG

4H2253-AA = biological target: T22, 4H2253-AA; conditions: mean of both orientations
T22 chain: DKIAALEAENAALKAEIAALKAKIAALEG

4H2330-AA = biological target: T23, 4H2330-AA; conditions: mean of both orientations
T23 chain: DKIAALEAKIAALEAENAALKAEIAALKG

4H2343-AA = biological target: T24, 4H2343-AA; conditions: mean of both orientations
T24 chain: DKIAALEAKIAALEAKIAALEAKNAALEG

4H2466-AA = biological target: T25, 4H2466-AA; conditions: mean of both orientations
T25 chain: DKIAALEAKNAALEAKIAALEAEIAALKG

4H249-AA = biological target: T26, 4H249-AA; conditions: mean of both orientations
T26 chain: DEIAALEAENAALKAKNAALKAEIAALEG

4H2592-AA = biological target: T27, 4H2592-AA; conditions: mean of both orientations
T27 chain: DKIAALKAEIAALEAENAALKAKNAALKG

4H2732-AA = biological target: T28, 4H2732-AA; conditions: mean of both orientations
T28 chain: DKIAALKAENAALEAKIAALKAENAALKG

4H2774-AA = biological target: T29, 4H2774-AA; conditions: mean of both orientations
T29 chain: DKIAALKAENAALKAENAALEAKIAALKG

4H2931-AA = biological target: T30, 4H2931-AA; conditions: mean of both orientations
T30 chain: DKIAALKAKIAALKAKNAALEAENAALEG

4H3001-AA = biological target: T31, 4H3001-AA; conditions: mean of both orientations
T31 chain: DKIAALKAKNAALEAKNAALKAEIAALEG

4H3015-AA = biological target: T32, 4H3015-AA
T32 chain: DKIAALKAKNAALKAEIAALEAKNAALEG

4H3073-AA = biological target: T33, 4H3073-AA
T33 chain: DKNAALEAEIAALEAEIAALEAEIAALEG

4H3438-AA = biological target: T34, 4H3438-AA; conditions: mean of both orientations
T34 chain: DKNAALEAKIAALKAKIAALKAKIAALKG

4H347-AA = biological target: T35, 4H347-AA; conditions: mean of both orientations
T35 chain: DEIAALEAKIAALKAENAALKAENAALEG

4H406-AA = biological target: T36, 4H406-AA; conditions: mean of both orientations
T36 chain: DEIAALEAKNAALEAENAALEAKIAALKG

4H452-AA = biological target: T37, 4H452-AA; conditions: mean of both orientations
T37 chain: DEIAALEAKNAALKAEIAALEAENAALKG

4H56-AA = biological target: T38, 4H56-AA; conditions: mean of both orientations
T38 chain: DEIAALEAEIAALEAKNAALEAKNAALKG

4H_APH = biological target: T39, 4H_APH; conditions: mean of both orientations
T39 chain: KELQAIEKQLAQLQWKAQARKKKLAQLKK

4H_BCR = biological target: T40, 4H_BCR; conditions: mean of both orientations
T40 chain: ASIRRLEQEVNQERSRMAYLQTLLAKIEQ

4H_GCN4 = conditions: mean of both orientations
GCN2_T = biological target: GCN2_T

4H_GCN4, sequence (chain, as listed by the source): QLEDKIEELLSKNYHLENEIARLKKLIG

Which interaction score (4H716-AA) does the source give for DEIAALKAENAALKAEIAALKAENAALKG [4H716-AA] here?
Its interaction score is 1.49.

And the interaction score (4H733-AA)?
Its interaction score is -1.28.

And the interaction score (4H807-AA)?
The interaction score was -1.6.

What about the interaction score (APC1015-AA) of the same binder?
The interaction score was -1.65.

What about the interaction score (APC1434-AA) of the same binder?
Its interaction score is -1.53.

What about the interaction score (APC2237-AA) of the same binder?
The interaction score was -1.74.

And the interaction score (APC232-AA)?
The interaction score was -1.48.

What about the interaction score (APC2405-AA) of the same binder?
The interaction score was -1.

What about the interaction score (APC3645-AA) of the same binder?
Its interaction score is -1.45.

What about the interaction score (APC4011-AA) of the same binder?
Its interaction score is -1.44.

What about the interaction score (APC4264-AA) of the same binder?
The interaction score was -1.35.

What about the interaction score (APC4436-AA) of the same binder?
Its interaction score is -1.65.

What about the interaction score (APC5383-AA) of the same binder?
The interaction score was -1.79.

What about the interaction score (APC6108-AA) of the same binder?
The interaction score was -1.47.

What about the interaction score (APC7099-AA) of the same binder?
Its interaction score is -1.6.

What about the interaction score (APC8191-AA) of the same binder?
The interaction score was -1.36.

What about the interaction score (APC8910-AA) of the same binder?
The interaction score was -1.89.

What about the interaction score (APC9096-AA) of the same binder?
Its interaction score is -1.43.

And the interaction score (APC9319-AA)?
Its interaction score is -1.79.

Which results are given for DKIAALEAEIAALKAEIAALKAENAALKG [4H2124-AA]?
interaction score (4H2124-AA): 1.61; interaction score (4H2165-AA): -1.36; interaction score (4H2253-AA): -1.14; interaction score (4H2330-AA): -1.05; interaction score (4H2343-AA): -0.871; interaction score (4H2466-AA): -1.16; interaction score (4H249-AA): -1.78; interaction score (4H2592-AA): -0.666; interaction score (4H2732-AA): -1.2; interaction score (4H2774-AA): -1.38; interaction score (4H2931-AA): -1.45; interaction score (4H3001-AA): -1.89; interaction score (4H3015-AA): -1.19; interaction score (4H3073-AA): 1.36; interaction score (4H3438-AA): -0.0325; interaction score (4H347-AA): -1.2; interaction score (4H406-AA): -1.71; interaction score (4H452-AA): -1.95; interaction score (4H56-AA): -1.73; interaction score (4H_APH): -1.67; interaction score (4H_BCR): -2.09; interaction score (4H_GCN4): -1.93; interaction score (GCN2_T): -1.07
